Patent publication US20040259798A1
Bridge positions count the residues as written; N and C are the ends. Ends that are not written are not given here.

How the values were obtained:
[1] = molecular target: β2 integrins on THP-1 cells; experiment: inhibition of THP-1 cell adhesion to coated LLG-C4-GST
[2] = molecular target: β2 integrins on THP-1 cells; experiment: inhibition (partial) of THP-1 cell adhesion to coated type IV collagen, phosphatase assay
[3] = molecular target: β2 integrins on THP-1 cells; experiment: inhibition of THP-1 cell adhesion to coated von Willebrand factor, phosphatase assay
[4] = molecular target: β2 integrins on THP-1 cells; experiment: inhibition of THP-1 cell adhesion to coated LLG-C4-GST, phosphatase assay

Row | fold less active than C(1-8;3-9) [1] [fold] | IC50 [2] [µM] | IC50 [3] [µM] | IC50 [4] [µM] | Binder
1 | 20 |  |  |  | CPCFLLGCC (disulfide 1-9, 3-8) [C(1-9;3-8) peptide]
2 |  | 200 | 20 | 20 | CPCFLLGCC (disulfide 1-8, 3-9) [C(1-8;3-9) peptide]
